Test results from patent US20240158505A1 (published 2024).

T1: Recombinant Human B7-H3 Fc chimera Protein (Rndsystem, Cat #1027-B3-100) (human, UniProt Q5ZPR3 29-245)
T1 chain: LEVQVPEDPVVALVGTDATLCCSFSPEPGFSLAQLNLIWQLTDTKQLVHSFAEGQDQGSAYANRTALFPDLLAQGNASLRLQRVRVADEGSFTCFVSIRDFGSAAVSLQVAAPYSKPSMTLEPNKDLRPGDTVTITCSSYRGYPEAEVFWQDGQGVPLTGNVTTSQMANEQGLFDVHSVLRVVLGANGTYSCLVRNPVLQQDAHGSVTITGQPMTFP


Assays:
[1] = biological target: B7-H3 expressed on the cell membrane (MCF-7, RKO and RKO/B7H3 cell lines) (UniProt Q5ZPR3); experiment: cell ELISA on fixed RKO/B7H3 cells
Chain of B7-H3 expressed on the cell membrane (MCF-7, RKO and RKO/B7H3 cell lines) (Q5ZPR3 29-534): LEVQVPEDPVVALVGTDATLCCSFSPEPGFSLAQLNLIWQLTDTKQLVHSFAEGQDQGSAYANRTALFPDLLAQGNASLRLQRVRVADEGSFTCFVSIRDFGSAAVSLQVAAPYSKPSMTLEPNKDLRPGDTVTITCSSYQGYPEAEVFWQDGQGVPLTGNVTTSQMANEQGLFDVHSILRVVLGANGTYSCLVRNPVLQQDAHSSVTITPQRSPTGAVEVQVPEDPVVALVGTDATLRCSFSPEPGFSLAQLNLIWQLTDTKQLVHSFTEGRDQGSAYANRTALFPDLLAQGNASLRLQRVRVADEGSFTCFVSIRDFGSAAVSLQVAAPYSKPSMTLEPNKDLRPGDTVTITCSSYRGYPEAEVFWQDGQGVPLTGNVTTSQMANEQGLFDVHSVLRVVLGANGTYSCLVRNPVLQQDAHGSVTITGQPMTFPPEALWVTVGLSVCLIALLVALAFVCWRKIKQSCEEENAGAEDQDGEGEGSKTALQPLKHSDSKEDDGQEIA

[2] = biological target: T1, Recombinant Human B7-H3 Fc chimera …; experiment: ELISA
[3] = biological target: B7-H3 expressed on the cell membrane (MCF-7, RKO and RKO/B7H3 cell lines) (UniProt Q5ZPR3); experiment: cell ELISA on fixed MCF-7 cells

| EC50 [1] [nM] | EC50 [2] [nM] | EC50 [3] [nM] | Binder |
| --- | --- | --- | --- |
| 0.187 | 1.8 | 1.01 | #7 antibody (antibody, V domains shown) VH: EVQLLESGGGLVQPGGSLRLSCAASGFTFSNFWIGWVRQAPGKGLEWVSWINPPGSITSYADSVKGRFTISRDNSKDTLYLQMNSLRAEDTAVYYCAREVGDVLDYWGQGTLVTVSS VL: QSVLTQPPSASGTPGQRVTISCTGTSSDIGRYNYVSWYQQLPGTAPKLLIYRNTQRPSGVPDRFSGSKSGTSASLAISGLRSEDEADYYCGTWDSSLNAYVFGGGTKLTVL |
| 0.065 | 1.86 | 0.234 | #6 antibody (antibody, V domains shown) VH: EVQLLESGGGLVQPGGSLRLSCAASGFTFSTYAISWVRQAPGKGLEWVSSIYYSGYTHYNPSLESRFTISRDNSKNTLYLQMNSLRAEDTAVYYCARGYSGWMDVWGQGTLVTVSS VL: QSVLTQPPSASGTPGQRVTISCGGNNIGSKSVHWYQQLPGTAPKLLIYDNNKRPSGVPNRFSGSKSGTSASLAISGLRSEDEADYYCAAWDDSLNVPVFGGGTKLTVL |
| 0.05 | 1.1 | 0.322 | #9 antibody (antibody, V domains shown) VH: EVQLLESGGGLVQPGGSLRLSCAASGFTFSSYAMNWVRQAPGKGLEWVSTISGSGGQTYYADSVKGRFTISRDNSKNTLYLQMNSLRAEDTAVYYCARWRSIWAFDYWGQGTLVTVSS VL: QSVLTQPPSASGTPGQRVTISCSDNNIGSKSVHWYQQLPGTAPKLLIYDNNKRPSGVPDRFSGSKSGTSASLAISGLRSEDEADYYCGTWDDSLSGPVFGGGTKLTVL |
| 0.06 | 0.63 | 0.159 | #8 antibody (antibody, V domains shown) VH: EVQLLESGGGLVQPGSSLRLSCAASGFTFSSYWISWVRQAPGKGLEWVSEISPSGNTNYNPSLKSRFTISRDNSKNTLYLQMNSLRAEDTAVYYCAREVGDLLDYWGQGTLVTVSS VL: QSVLTQPPSASGTPGQRVTISCSGSNIGNNYVSWYQQLPGTAPKLLIYQDSKRPSGVPDRFSGSKSGTSASLAISGLRSEDEADYYCLVWDRSSDHFVFGGGTKLTVL |

More lines, now with the values behind:

| Binder | EC50 [1] [nM] | EC50 [2] [nM] | EC50 [3] [nM] |
| --- | --- | --- | --- |
| #2 antibody (antibody, V domains shown) VH: EVQLLESGGGLVQPGGSLRLSCAASGFTFSAYYMIWVRQAPGKGLEWVSITNPSGGVTSYAQKFQGRFTISRDNSKNTLYLQMNSLRAEDTAVYYCARVGGRGFDIWGQGTLVTVSS VL: EIVLTQSPGTLSLSPGERATLSCHASQGISNYVAWYQQKPGQAPRLLIYDASNRATGIPDRFSGSGSGTDFTLTISHLEPEDFAVYYCQQSYSTLLTFGQGTKVEIK | 0.036 | 0.42 | 0.061 |
| #1 antibody (antibody, V domains shown) VH: EVQLLESGGGLVQPGGSLRLSCAASGFTFSSYAMSWVRQAPGKGLEWVSTITGSGGSTYYADSVKGRFTISRDNSKNTLYLQMNSLRAEDTAVYYCARYKSGAFDIWGQGTLVTVSS VL: EIVLTQSPGTLSLSPGERATLSCRASQGIGNYLGWYQQKPGQAPRLLIYTASSLQSGIPDRFSGSGSGTDFTLTISRLEPEDFAVYYCQQGYSTPSWTFGQGTKVEIK | 0.015 | 0.18 | 0.605 |
| #3 antibody (antibody, V domains shown) VH: EVQLLESGGGLVQPGGSLRLSCAASGFTFSTYYMTWVRQAPGKGLEWVSIINPRGGSTSYAEKFQGRFTISRDNSKNTLYLQMNSLRAEDTAVYYCARWNLGMDVWGQGTLVTVSS VL: EIVLTQSPGTLSLSPGERATLSCRVSQSISSYLNWYQQKPGQAPRLLIYDASHRATGIPDRFSGSGSGTDFTLTISRLEPEDFAVYYCQQYYAPSVTFGQGTKVEIK | 0.065 | 1.1 | 0.197 |
| #4 antibody (antibody, V domains shown) VH: EVQLLESGGGLVQPGGSLRLSCAASGFTFSSYGMHWVRQAPGKGLEWVSAISGSGTSIYYANSVKSRFTISRDNSKNTLYLQMNSLRAEDTAVYYCARGAGWFDYWGQGTLVTVSS VL: QSVLTQPPSASGTPGQRVTISCSGSTSNIGSNTVNWYQQLPGTAPKLLIYGKNIRPNGVPDRFSGSKSGTSASLAISGLHSEDEADYYCQSYDSSLSGWVFGGGTKLTVL | 0.042 | 0.55 | 0.502 |
| #5 antibody (antibody, V domains shown) VH: EVQLLESGGGLVQPGGSLRLSCAASGFTFSTYAMSWVRQAPGKGLEWVSAISGSGGSTLYADSVKGRFTISRDNSKNTLYLQMNSLRAEDTAVYYCARGGSATWAFDLWGQGTLVTVSS VL: QSVLTQPPSASGTPGQRVTISCSGSSSNIGSNYVYWYQQLPGTAPKLLIYRNNQRPSGVPDRFSGSKSGTSASLAISGLRSEDEADYYCGTWDSSLSGVVFGGGTKLTVL | 0.091 | 1.2 | 1.74 |
